{"source": "paper doi:10.1101/580712", "biological_target": "human Macrophage Expressed Gene-1 (MPEG-1) soluble ectodomain, wild type (human) (UniProt Q2M385)", "assay": "cryo-EM structure"}
{"substance": "human Macrophage Expressed Gene-1 (MPEG-1) soluble ectodomain, wild type (from UniProt Q2M385 17-653) (domain or fragment)", "values": [{"measurement": "stoichiometry N (subunits per ring)", "value": 16}]}
